Test results: patent US20210122826A1 (MIT, published 2021)

Biological target: T1, human CD161 (human, UniProt Q12918 1-225)
T1 construct: UniProt Q12918; also called hCD161; KLRB1
Assay: blocking assay by flow cytometry: 500 nM biCLEC2D on Jurkat hCD161+ cells with 1, 10 or 100 nM antibody, SA-AF647; blocked ligand biCLEC2D; control 500 nM biCLEC2D on Jurkat WT

binding result: binds
B1: KM12.3.2 (antibody, V domains shown)
VH: EVQLVESGGGLVQPGGSLRLSCAASGFTFSSYAMSWIRQAPGKGLEWVSAISGSGGSIYYADSVKGRFTISRDNSKNTLYLQMDSLRAEDTAVYYCARGYSDSYFYGPYYTFDYWGQGTLVTVSS
VL: not shown
